Reference: US12492490 (University of California, dated 2025)

B1: HCA-M1 (antibody, V domains shown)
VH: QVQLVESGGGVVQPGRSLRLSCAASGFTFSSYAMHWVRQAPGKGLEWVAVISYDGSNKYYADSVKGRFTISRDNSKNTLYLQMNSLRAEDTAVYYCARAPAYSYGPFDYWGQGTLVTVSS
VL: SSELTQDPAVSVALGQTVRITCQGDSLRSYYASWYQQKPGQAPVLVIYGKNNRPSGIPDRFSGSSSGNTASLTITGAQAEDEADYYCHSRDSSGTHLRVFGGGTKVTVL
notes: also called IgG HCA-M1
B2: HCA-S1 (antibody, V domains shown)
VH: QVQLQESGGGLVQPGGSLRLSCAASGFTFSSYAMHWVRQAPGKGLEWVAVISYDGSNKYYADSVKGRFTISRDNSKNTLYLQMNSLRAEDTAVYYCARFSSGWYYFDYWGQGTLVTVSS
VL: DIQMTQSPSFLSASVGDRITITCRASHDISSYFAWYQQKPGKAPKPLIYAASTLQSGVPSRFSGSGSGTEFTLTISSLQPEDFATYYCQQLGSYPLTFGGGTKLEIK
notes: also called IgG HCA-S1

Molecular target: T1, human ephrin type-A receptor 2 (EphA2) (human, UniProt P29317 24-976)
T1 construct: whole, on cells; also called NP_004422
T1 sequence (P29317 24-976): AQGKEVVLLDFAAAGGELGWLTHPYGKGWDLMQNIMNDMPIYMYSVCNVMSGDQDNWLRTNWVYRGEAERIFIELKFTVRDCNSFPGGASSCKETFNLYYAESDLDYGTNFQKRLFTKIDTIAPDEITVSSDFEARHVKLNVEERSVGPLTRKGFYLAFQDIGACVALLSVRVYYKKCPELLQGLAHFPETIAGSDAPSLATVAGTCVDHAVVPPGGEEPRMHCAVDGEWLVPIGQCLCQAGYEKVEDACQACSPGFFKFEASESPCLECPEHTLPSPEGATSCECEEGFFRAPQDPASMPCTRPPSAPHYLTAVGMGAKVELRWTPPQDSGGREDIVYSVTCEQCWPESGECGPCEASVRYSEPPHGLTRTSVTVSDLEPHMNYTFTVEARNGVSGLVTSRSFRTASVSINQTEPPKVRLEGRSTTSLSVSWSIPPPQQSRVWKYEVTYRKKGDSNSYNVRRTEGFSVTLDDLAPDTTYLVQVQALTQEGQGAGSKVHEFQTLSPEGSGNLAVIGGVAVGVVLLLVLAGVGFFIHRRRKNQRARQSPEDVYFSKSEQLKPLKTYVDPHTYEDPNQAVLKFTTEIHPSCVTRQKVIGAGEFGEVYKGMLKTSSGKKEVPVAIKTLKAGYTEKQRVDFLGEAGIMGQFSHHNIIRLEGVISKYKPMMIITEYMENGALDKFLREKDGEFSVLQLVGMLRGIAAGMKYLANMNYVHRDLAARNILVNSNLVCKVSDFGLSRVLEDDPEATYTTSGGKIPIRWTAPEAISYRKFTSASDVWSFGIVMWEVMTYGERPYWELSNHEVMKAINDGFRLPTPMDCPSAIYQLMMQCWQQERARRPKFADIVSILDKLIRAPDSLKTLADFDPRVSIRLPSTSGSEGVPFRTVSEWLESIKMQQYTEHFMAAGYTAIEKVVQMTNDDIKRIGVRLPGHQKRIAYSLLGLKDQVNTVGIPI
Assay: not described

| Binder | binding result |
| --- | --- |
| B1 | no binding |
| B2 | no binding |
